Laboratory results from article PMC4889959 (Nucleic Acids Research, 2016).

B1: SLX4BTB wild type, yeast two-hybrid fusion [human] / itself (parent complex)
chain: QDKHPDRGGRTLLSLGLLVADFGAMVNNPHLSDVQFQTDSGEVLYAHKFVLYARCPLLIQYVNNEGFSAVEDGVLTQRVLLGDVSTEAARTFLHYLYTADTGLPPGLSSELSSLAHRFGVSELVHLCEQVPIATDS

Variants of: B1
Experiment: yeast two-hybrid β-galactosidase assay; ONPG as substrate; SLX4BTB-F708R-AD + SLX4BTB-F708R-BD; parent: 710; read off a plot

Variant | response [OD420 reading]
chain 1 F49R | ~3

Variants of: B1
Experiment: yeast two-hybrid β-galactosidase assay; ONPG as substrate; SLX4BTB-F681R-F708R-AD + SLX4BTB-F681R-F708R-BD; parent: 710; read off a plot

Variant | response [OD420 reading]
chain 1 F22R, chain 1 F49R | ~2.5
